This data set deals with the molecule itself. Kind of data set: SDS-PAGE of samples not heated in sample buffer; MsmNDK-Pi (1 µg) in kinase buffer (50 mM Tris-HCl pH 8.0, 50 mM KCl, 10 mM MgCl2), 30°C, mixed with SDS-PAGE sample buffer without heating, 12% SDS-PAGE, Coomassie stain.

B1: Mycobacterium smegmatis nucleoside diphosphate kinase (MsmNDK) (enzyme, Mycobacterium smegmatis mc2155, UniProt O85501 1-139, looked up)
chain: MTERTLVLIKPDGVKRQLVGEILSRIERKGLTLAALELKNVSDDLARQHYAEHADKPFFGSLLEFITSGPLVAAIVEGPRAVAAFRQIAGGTDPVEKAVPGTIRGDFALITQDNLVHGSDSPESAAREIALWFPGEATA
notes: Nucleoside diphosphate kinase of Mycobacterium smegmatis mc2155, locus MSMEG_4627; ORF amplified from genomic DNA and cloned into pProEx-Htb between NcoI and HindIII; also called MsmNDK-Pi; source: E. coli M15, purified (Ni-NTA, Superdex-75)
For the protein B1, the binding result was “binds”.

The values are drawn from paper PMC11784022, “An unusual activity of mycobacterial MutT1 Nudix hydrolase domain as a protein phosphatase regulates nucleoside diphosphate kinase function” (Journal of Bacteriology, 2024).
